# Assay results published in patent publication US20030119027.
# Molecular target: T1, SfiI (Streptomyces fimbriatus) (UniProt O52512)
# T1 sequence: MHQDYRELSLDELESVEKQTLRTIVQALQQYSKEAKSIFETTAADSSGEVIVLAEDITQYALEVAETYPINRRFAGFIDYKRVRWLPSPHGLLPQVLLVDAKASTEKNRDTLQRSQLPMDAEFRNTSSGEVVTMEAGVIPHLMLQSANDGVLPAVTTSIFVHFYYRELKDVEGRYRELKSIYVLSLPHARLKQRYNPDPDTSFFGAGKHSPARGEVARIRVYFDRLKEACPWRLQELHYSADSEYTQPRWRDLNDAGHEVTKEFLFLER
# Experiment: cleavage_in_vitro
# Settings: yield of in vitro translation with T7 RNA polymerase; NEBuffer 2, 10 mM MgCl2, 50 C 60 min
sequence,measurement,value
GGCCNNNNNGGCC (double strand) [SfiI site (Adenovirus-2 DNA)],activity,> 33000 units/ml
